The values that follow come from publication PMC5779224 (2017).

Where a chain is given by its changes, count along the chain named. Read-outs that look alike come from different tables or passages of the source.

In test [1] the target is T1, AnkB_MBD (AnkB ANK repeats only, aa 28–827) (human, UniProt Q01484-2 28-827).
T1 chain: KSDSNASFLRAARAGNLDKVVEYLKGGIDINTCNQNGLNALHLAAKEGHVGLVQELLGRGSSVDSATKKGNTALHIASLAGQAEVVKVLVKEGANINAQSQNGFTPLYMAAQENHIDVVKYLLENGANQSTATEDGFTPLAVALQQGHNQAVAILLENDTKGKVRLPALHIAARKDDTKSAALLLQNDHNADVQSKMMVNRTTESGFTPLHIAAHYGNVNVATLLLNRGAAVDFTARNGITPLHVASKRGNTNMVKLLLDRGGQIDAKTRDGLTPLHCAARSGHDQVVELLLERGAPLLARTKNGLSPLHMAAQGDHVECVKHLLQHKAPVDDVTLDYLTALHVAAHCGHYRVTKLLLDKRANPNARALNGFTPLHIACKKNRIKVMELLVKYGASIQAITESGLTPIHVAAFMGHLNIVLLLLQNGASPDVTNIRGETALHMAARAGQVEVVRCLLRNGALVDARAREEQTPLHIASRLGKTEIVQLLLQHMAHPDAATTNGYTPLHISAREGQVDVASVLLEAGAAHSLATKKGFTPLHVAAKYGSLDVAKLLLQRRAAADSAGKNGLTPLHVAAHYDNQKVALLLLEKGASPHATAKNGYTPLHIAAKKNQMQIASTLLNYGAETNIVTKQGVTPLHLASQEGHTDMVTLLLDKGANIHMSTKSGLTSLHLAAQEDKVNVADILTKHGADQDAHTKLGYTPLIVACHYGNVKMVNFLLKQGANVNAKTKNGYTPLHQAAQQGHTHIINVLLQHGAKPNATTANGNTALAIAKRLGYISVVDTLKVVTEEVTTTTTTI
As to the kind of experiment: ITC. (In general: ITC needs no label: the signal is the heat of the interaction.)

The target of test [2] is T2, AnkB_MBD R1 charge reversal mutant ('EAAE') (human, UniProt Q01484-2 28-827, 37RAAR40 to 37EAAE40).
T2 sequence: T1 chain with R10E, R13E
As to the kind of experiment: FP.

In test [3] the target is T1, AnkB_MBD (AnkB ANK repeats only, aa …). As to the kind of experiment: ITC.
In test [4] the target is T3, AnkB_MBD Asn595Ala (human, UniProt Q01484-2 28-827, Asn595Ala).
T3 sequence: T1 chain with N568A
As to the kind of experiment: ITC.

The target in test [5] is T4, AnkG 38–855 (AnkG MBD-AI-c protein; MBD + partial AI-c) (rat, UniProt O70511-1 38-855).
T4 chain: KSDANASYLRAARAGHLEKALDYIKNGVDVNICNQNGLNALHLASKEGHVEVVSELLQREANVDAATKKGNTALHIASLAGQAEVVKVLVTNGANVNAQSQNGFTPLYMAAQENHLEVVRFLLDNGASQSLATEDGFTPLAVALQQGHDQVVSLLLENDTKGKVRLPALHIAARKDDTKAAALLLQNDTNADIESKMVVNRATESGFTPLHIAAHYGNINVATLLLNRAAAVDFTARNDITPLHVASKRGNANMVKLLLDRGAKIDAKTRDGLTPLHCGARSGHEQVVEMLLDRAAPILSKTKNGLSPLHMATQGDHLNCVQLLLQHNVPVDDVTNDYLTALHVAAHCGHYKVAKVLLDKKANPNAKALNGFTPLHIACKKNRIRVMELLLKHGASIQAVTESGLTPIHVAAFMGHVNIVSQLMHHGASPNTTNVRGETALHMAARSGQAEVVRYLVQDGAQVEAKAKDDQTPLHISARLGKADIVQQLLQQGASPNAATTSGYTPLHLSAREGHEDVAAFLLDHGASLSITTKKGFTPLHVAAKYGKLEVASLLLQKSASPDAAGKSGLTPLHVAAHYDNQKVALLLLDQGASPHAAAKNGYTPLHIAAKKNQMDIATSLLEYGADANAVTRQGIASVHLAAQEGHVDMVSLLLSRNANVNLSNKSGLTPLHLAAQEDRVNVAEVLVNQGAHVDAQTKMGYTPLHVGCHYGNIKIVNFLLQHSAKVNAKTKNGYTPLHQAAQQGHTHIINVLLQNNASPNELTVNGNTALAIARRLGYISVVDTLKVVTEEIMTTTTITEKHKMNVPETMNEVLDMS
As to the kind of experiment: ITC.

Test [6] deals with T5, AnkB 28–847 (MBD + partial AI-c) (human, UniProt Q01484-2 28-847).
T5 chain: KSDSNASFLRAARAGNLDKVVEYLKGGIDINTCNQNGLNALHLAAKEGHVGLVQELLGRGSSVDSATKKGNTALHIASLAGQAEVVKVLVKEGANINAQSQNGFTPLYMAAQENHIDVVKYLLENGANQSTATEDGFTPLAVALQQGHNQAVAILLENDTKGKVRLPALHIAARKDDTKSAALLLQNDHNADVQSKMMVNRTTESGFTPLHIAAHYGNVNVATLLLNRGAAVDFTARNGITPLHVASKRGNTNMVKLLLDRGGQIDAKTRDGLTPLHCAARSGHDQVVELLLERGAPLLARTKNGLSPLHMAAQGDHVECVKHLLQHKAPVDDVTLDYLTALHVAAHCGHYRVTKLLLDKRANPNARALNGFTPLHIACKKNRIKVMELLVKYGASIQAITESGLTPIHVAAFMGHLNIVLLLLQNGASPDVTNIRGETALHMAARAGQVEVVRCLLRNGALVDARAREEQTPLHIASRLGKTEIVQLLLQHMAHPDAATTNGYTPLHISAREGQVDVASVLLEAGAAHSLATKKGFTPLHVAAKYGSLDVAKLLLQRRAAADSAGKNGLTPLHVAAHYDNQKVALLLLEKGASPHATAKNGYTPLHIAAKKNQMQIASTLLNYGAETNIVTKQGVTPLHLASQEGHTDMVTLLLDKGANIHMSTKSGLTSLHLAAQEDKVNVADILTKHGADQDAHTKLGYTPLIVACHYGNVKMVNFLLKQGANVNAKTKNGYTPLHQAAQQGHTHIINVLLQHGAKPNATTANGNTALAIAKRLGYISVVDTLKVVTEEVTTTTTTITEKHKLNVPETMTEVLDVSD
As to the kind of experiment: ITC.

The target in test [7] is T6, AnkG 38–903 (MBD + AI-c + AI-b) (rat, UniProt O70511-1 38-903).
T6 chain: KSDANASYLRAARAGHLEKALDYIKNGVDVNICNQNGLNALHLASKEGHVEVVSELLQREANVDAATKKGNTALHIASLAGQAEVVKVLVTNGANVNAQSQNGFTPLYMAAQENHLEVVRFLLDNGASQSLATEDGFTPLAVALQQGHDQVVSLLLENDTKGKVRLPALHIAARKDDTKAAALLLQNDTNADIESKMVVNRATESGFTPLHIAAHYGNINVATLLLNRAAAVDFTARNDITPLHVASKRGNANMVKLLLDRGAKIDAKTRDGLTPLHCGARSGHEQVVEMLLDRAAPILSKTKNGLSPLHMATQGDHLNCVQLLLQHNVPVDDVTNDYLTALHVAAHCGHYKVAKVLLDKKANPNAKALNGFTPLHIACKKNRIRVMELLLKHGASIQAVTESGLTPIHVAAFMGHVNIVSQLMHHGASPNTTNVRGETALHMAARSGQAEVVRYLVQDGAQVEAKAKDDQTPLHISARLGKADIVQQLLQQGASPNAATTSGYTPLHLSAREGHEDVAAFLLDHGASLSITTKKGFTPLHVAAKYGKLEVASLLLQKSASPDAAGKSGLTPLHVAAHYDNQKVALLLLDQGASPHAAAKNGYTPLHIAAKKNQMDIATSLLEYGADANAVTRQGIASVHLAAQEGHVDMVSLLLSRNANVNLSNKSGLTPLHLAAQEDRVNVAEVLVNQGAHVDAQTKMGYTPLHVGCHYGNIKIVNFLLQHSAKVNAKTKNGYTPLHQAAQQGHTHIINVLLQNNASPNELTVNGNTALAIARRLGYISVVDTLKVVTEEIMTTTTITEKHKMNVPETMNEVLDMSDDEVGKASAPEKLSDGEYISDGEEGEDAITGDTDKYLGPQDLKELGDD
As to the kind of experiment: ITC; too weak to be reliably fit.

B1: AnkR/B_CT Chimera (peptide)
chain: CADQYWNEVAVIDAIPLAATEHDTMLEMSDMQVWSAGDHPPIVSEEDIS
One may read the Kd as the constant that tells how readily two partners part at equilibrium. Regarding B1, the Kd in test [1] is 470 nM.

B2: AnkB_AI-a peptide (aa 1623–1635) (peptide)
peptide: HPPIVSEEDISVG
B2: in test [2], the dissociation constant Kd was found to be 43.8 µM.

B3: AnkB_AI-c (aa 828–852) (domain or fragment)
chain: TEKHKLNVPETMTEVLDVSDEEGDD
In the case of B3, the figures for the Kd in test [3] and in test [4] were 360 nM and 2400 nM, respectively.

B4: E-cadherin (aa 734–884) (domain or fragment)
chain: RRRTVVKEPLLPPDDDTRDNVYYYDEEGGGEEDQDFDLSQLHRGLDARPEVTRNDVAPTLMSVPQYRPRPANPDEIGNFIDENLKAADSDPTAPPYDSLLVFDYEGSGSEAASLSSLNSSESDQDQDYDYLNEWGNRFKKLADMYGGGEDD
B4: the Kd in test [5] was 610 nM; in test [6], 780 nM; in test [7] it was about 45 µM.
